Article PMC4297517 (Journal of molecular biology, 2014)
Blank lines part the entries; values can stand above or below the binder they belong to.

Target: ClpB_(E279A,E678A) (E. coli, UniProt P63284 1-857, E279A | E678A)
Assay: fluorescence polarisation

- binding result: binds
B1: DnaK_(py-N282A*) (natural protein)
chain: not shown
modifications: N-(1-pyrene)maleimide label (K106C introduced for labeling); degree of labeling between 0.1 and 0.5

- binding result: binds
B2: DnaK_(py-Q57A*) (natural protein)
chain: not shown
modifications: N-(1-pyrene)maleimide label (K106C introduced for labeling); degree of labeling between 0.1 and 0.5
